Here are results for one substance from PMC4901313.

In general, stoichiometry N refers to a count of units in the complex or per binding partner.

This assay deals with Gp45, receptor binding protein (RBP) of Staphylococcus aureus phage ϕ11 (Staphylococcus aureus phage ϕ11). The assay can be described thus: crystal structure; native crystals, space group P1, 2.20 Å; grown in 0.1 M bicine/Trizma base pH 8.5, 10% w/v PEG 8000, 20% v/v ethylene glycol, 0.12 M monosaccharide-mix at 16 °C; three monomers related by non-crystallographic three-fold symmetry.

Take “Gp45, receptor binding protein (RBP) of Staphylococcus aureus phage ϕ11 (natural protein)”: the stoichiometry N worked out at 3.
